Laboratory results from patent publication US11834472B2, “Anti-IL-22 antibodies, antibody fragments, their immunoconjugates and uses thereof” (BioAtla, Inc., priority 2018, dated 2023).
Where two headings read alike, the source gives them in different places.

Key:
human IL-22 = molecular target: T1, human IL-22 (Homo sapiens, UniProt Q9GZX6); experiment: SPR capture assay, affinity to human IL-22; assay type: binding; details: human IL-22, SPR
T1 sequence (Q9GZX6 34-179): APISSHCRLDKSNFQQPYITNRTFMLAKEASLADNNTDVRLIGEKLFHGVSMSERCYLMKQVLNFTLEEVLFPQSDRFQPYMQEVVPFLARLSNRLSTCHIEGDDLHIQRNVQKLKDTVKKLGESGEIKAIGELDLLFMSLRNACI
Experimental: (§1) The affinity of the 10 antibodies of Table 1 was measured by Surface Plasma Resonance (SPR) using a capture assay in PBS buffer to generate binding curves at four different concentrations of each antibody (0.05, 0.1, 0.5, and 1.0 μg/ml). The Ka, Kd and KD values for the mutant antibodies were calculated from the curves for each of the antibodies.
(§2) The affinity of the 10 antibodies of Table 1 was measured by Surface Plasma Resonance (SPR) using a capture assay on a SPR-2 instrument (SierraSensiors, Hamburg, Germany). The antigens hIL-22 and mIL-22 were immobilized on chips. The running buffer for the assay contained 10 mM HEPES with a pH of 7.4, 500 mM NaCl, and 0.05% TWEEN® 20. […] The off-rate was measured for 6 minutes. Binding constants were calculated using the curve fitting software Analyzer2 (Sierra Sensors). Sensorgrams were analyzed with the instrument specific software and with BIAevaluation 4.1 software. The binding data were analyzed using the Langmuir 1:1 model (human IL-22) or a model for a heterogeneous ligand ([…]).
(§3) The antibodies were tested at four different concentrations of each antibody: 0.33 nM, 0.67 nM, 3.3 nM, 6.7 nM for hIL-22; 1, 2, […] for mIL-22. Antibody CPE-LC-E049K was used as a control.

mouse IL-22 = molecular target: T2, mouse IL-22 (Mus musculus, UniProt Q9JJY9); experiment: SPR capture assay, affinity to mouse IL-22; assay type: binding; details: mouse IL-22, SPR
T2 sequence (Q9JJY9 34-179): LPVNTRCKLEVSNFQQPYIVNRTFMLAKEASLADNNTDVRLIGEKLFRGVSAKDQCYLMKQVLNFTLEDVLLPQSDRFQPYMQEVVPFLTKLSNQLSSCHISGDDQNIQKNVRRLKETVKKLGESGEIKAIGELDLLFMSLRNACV
Experimental: as §1, §2, §3

mouse IL-22 (mIL-22) = molecular target: T3, mouse IL-22 (mIL-22) (Mus musculus, UniProt Q9JJY9); experiment: Inhibition of mIL-22 induced Stat3 phosphorylation in HepG2 cells; assay type: cell-based; details: mAb 6.7 nM
T3 sequence (Q9JJY9 34-179): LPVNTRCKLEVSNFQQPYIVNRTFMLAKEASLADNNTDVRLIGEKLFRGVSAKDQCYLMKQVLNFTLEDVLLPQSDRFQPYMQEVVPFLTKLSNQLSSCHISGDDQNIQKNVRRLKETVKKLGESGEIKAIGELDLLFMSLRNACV
Experimental: One of the immediate functions of IL-22 is inducing phosphorylation of Stat3, a protein in the signaling pathway of IL-22. The 10 antibodies of Table 1 were tested in a cell-based assay for blocking IL-22-dependent phosphorylation of Stat3 through human or mouse IL-22 in HepG2 cells. Antibody hum10 and mutant CPE-LC-E049K were used as controls. Four concentrations of each of the antibodies were used: 0.11 μg/mL, 0.33 μg/mL, 1 μg/mL, and 3 μg/mL.
30,000 human HepG2 cells were seeded in 96 well plates and serum starved overnight. Three-fold dilutions of anti-IL-22 antibodies and control hum10 antibody at concentrations of 0.11 μg/mL, 0.33 μg/mL, 1 μg/mL, and 3 μg/mL were incubated with 200 ng/ml of hIL-22 or mIL-22 at 37° C. for one hour then added to the serum starved human HepG2 cells. The HepG2 cells were incubated with the antibody-IL-22 mixture at 37° C. for 20 minutes. After incubation, HepG2 cells were washed with PBS and lysed. Half of the cell lysate was used to determine the level of phosphorylated Stat3 using Cell Signaling kit #7300 following the vendor's protocol and the other half of the cell lysate was used to determine the level of total Stat3 by Western blot analysis using a Santa Cruz rabbit polyclonal antibody (Sc-7179) against human Stat3.

[1] = Pharmacokinetics in NOD SCID mice, plasma concentration by solid phase ELISA; assay type: in vivo, mouse; details: after a 10 mg/kg IV injection
Experimental: The pharmacokinetics of the mutant antibodies of Table 1 were analyzed in mice. The antibodies were injected into mice by IV injection at two doses 0.3 mg/kg and 10 mg/kg. The concentrations of the injected antibodies in the blood plasma were measured by solid phase ELISA.
Two anti-IL-22 antibodies CPS02 and CPS09 were tested in NOD SCID mice. The antibodies were injected via IV at two dosages: 0.3 mg/kg and 10 mg/kg. Three mice were used for each dose group. Blood samples were retrieved from the mice at 10 min, 1 h, 3 h 7 h, 24 h, 48 h, 96 h, 168 h, 240 h and 336 h after the IV injection. The concentrations of the injected antibodies in the blood samples were measured by solid phase ELISA.

[2] = system: imiquimod (IMQ) induced psoriasis; assay type: in vivo; details: for reduction in body weight of the treated mice: days 0-7, in comparison to dexamethasone / PBS (FIG. 13)
From the text: Two anti-IL-22 antibodies of the present invention, CPS02 and CPS09, were used for the treatment of imiquimod (IMQ) induced psoriasis in mice (FIG. 12). The mice were male BALB/c mice, which were an albino, laboratory-bred strain of the house mouse. A total of 70 mice, at a body weight of 18-20 g, were acclimated for 7 days before induction of psoriasis.
The 70 mice were randomized into 7 groups (10 mice in each group). One group (group 1) was used as a negative control to which no imiquimod was administered to the mice, which was instead replaced with Vaseline. […] The other 6 groups (groups 2-7) were dosed topically with imiquimod at a dosage of 82.5 mg/mouse (5% cream) once daily (qd) for 8 consecutive days from day 0 to day 7 (20 mg for the left ear, 62.5 mg for the shaved back) to induce psoriasis. The back skin was shaved to expose an area of 2×3 cm^2. For the Vaseline control group, the Vaseline was also applied at 82.5 mg/mouse once daily (qd) for 8 consecutive days (20 mg for left ear, 62.5 mg for the shaved back) from day 0 to day 7.
Group 2 was a group of psoriasis-induced mice that were untreated to serve as a control group. The treatment period completely overlapped with the imiquimod application period (day 0 to day 7). For group 2, the mice received both imiquimod and […] on each day of the 8-day period (day 0 to day 7). For the groups that received intravenous (I.V.) injection, the imiquimod was applied within one hour after the I.V. injection on days 0 and 3.
Group 3 was treated with the steroid dexamethasone, which is a current therapeutic treatment used for psoriasis. The dexamethasone was topically applied twice a day (BID) for 8 days. Group 4 was treated with phosphate-buffered saline (PBS), which served as a negative control. Group 5 was treated with an isotype control antibody that also served as a negative control. Groups 6-7 were treated with the anti-IL22 antibodies CPS02 (A) and CPS09 (B), respectively. The treatments for Groups 4-7 were administered by a single intravenous (I.V.) injection on each of days 0 and 3. 3 mice in group 6 died on day 0 and 2 died on day 1. On day 3, the I.V. injection dosage for this group was decreased to 10 mg/kg.
During the 8 day treatment period, the ear thickness was measured on days 0, 3, 5 and 7. The body weight and various skin scores were recorded daily. Pictures of the psoriasis sites were taken on days 0, 3, 5 and 7. On days 1 and 4, about 60 μl blood was collected via retro-orbital bleeding over 24 hours and placed in BD Microtainer® tubes coated with dipotassium ethylenediaminetetraacetic acid (K2EDTA). Plasma was then collected (to get at least 20 μl plasma) and stored at −80° C.
Skin scores for erythema, scales and thickness were measured daily according to an established grading system. The erythema, scales and thickness were scored independently on a scale of from 0 to 4: 0 means none, 1 means slight, 2 means moderate, 3 means marked, and 4 means very marked. The cumulative (total) skin score was also calculated.
The effects of the treatments were analyzed statistically using two-way analysis of variance (ANOVA, Bonferroni post-tests) or one-way ANOVA analysis. For comparisons between the treatment groups and the control group, the p value is denoted in FIGS. 13-18 as (*) if less than 0.05, (**) if less than 0.01, or (***) if less than 0.001.

[3] = Aggregate formation at 10 mg/mL in PBS; assay type: physicochemical
Thermostability = assay type: physicochemical

B1: CPS09: mutant anti-IL-22 antibody binding human and mouse IL-22; light chain LC-04, heavy chain HC-25 (antibody, V domains shown)
VH: QVQLVQSGAEVKKPGASVKVSCKASGYIFRSYWIHWIRQPPGKGLEWIGRIYPGTGRTYYNEKFKGRVTISADKSISTAYLQWSSLKASDTAMYYCARSYDYSVAYWGQGTLVTVSS
VL: AIQLTQSPSSLSASVGDRVTITCSASSSVSYMHWYLQKPGQSPQLLIYETRKLASGVPSRFSGSGSGTDFTFTISSLEAEDAATYYCQQWSSNPYITFGQGTKVEIKR
Work on B1 yielded a ka (human IL-22) of 860000 M·s, a kd (human IL-22) of 2.18e-05 s⁻¹ and a ka (mouse IL-22) of 194000 M·s. For the same molecule, the kd (mouse IL-22) was 0.000768 s⁻¹, the “STAT3 Phosphorylation; mIL22 % inhibition” value (mouse IL-22 (mIL-22)) was 63.12% and the half-life in mice [1] was “about 16 hours”. For the same molecule, the “effect in treating psoriasis in the mouse model (summary)” value ([2]; IMQ psoriasis mice) was “especially effective in treating psoriasis”, the “reduction in body weight of the treated mice” value ([2]; IMQ psoriasis mice) was “less reduction in body weight” and the “reduction in body weight of the treated mice” value ([2]; IMQ psoriasis mice, listed as CSP09) was “reduction in body weight similar to the PBS buffer negative control”. For the same molecule, the “side effect (summary)” value ([2]; in comparison with the known treatment (dexamethasone)) was “only a minimal side effect”, the ear skin thickness ([2]; vs negative controls (isotype matched antibody, PBS, vehicle) (FIG. 14)) was “less” and the skin erythema score ([2]; vs negative controls (isotype matched antibody, PBS, vehicle) (FIG. 15)) was “lower”. For the same molecule, the skin scale score ([2]; vs negative controls (isotype matched antibody, PBS, vehicle) (FIG. 16)) was “lower”, the skin thickness ([2]; vs negative controls (isotype matched antibody, PBS, vehicle) (FIG. 17)) was “lower” and the “Aggregate formation at 10 mg/mL in PBS” value [3] was “no”. For the same molecule, the “Thermostability (% remaining activity 60 min); of duplicate samples” value (Thermostability) was 102%.

B2: CPS17: mutant anti-IL-22 antibody binding human and mouse IL-22; light chain LC-04, heavy chain HC-49 (antibody, V domains shown)
VH: QVQLVQSGAEVKKPGASVKVSCKASGYIFRSYWIHWIRQPPGKGLEWIGRIYPGTGNTYYNRKFKGRVTISADKSISTAYLQWSSLKASDTAMYYCARSYMYSVAYWGQGTLVTVSS
VL: AIQLTQSPSSLSASVGDRVTITCSASSSVSYMHWYLQKPGQSPQLLIYETRKLASGVPSRFSGSGSGTDFTFTISSLEAEDAATYYCQQWSSNPYITFGQGTKVEIKR
For B2, the ka (human IL-22) was 1.33e+06 M·s, the kd (human IL-22) was 6.94e-05 s⁻¹ and the ka (mouse IL-22) was 252000 M·s. For the same molecule, the kd (mouse IL-22) was 0.00158 s⁻¹.

B3: LC-E049K: one of the mutant antibodies in the CPE library, used as a control (antibody, V domains shown)
VH: QVQLVQSGAEVKKPGASVKVSCKASGYIFTSYWIHWIRQPPGKGLEWIGRIYPGTGNTYYNEKFKGRVTISADKSISTAYLQWSSLKASDTAMYYCARSYDSSCAYWGQGTLVTVSS
VL: AIQLTQSPSSLSASVGDRVTITCSASSSVSYMHWYLQKPGQSPQLLIYKTSKLASGVPSRFSGSGSGTDFTFTISSLEAEDAATYYCQQWSSNPYITFGQGTKVEIKR
B3 showed a ka (human IL-22) of 381000 M·s, a kd (human IL-22) of 5.93e-05 s⁻¹ and a ka (mouse IL-22) of 34100 M·s. For the same molecule, the kd (mouse IL-22) was 0.00137 s⁻¹.

B4: CPS14 (antibody, V domains shown)
VH: QVQLVQSGAEVKKPGASVKVSCKASGYIFTSYWIHWIRQPPGKGLEWIGRIYPGTGRTYYNRKFKGRVTISADKSISTAYLQWSSLKASDTAMYYCARSYDYSVAYWGQGTLVTVSS
VL: AIQLTQSPSSLSASVGDRVTITCSASSSVSYMHWYLQKPGQSPQLLIYETRKLASGVPSRFSGSGSGTDFTFTISSLEAEDAATYYCQQWSSNPYITFGQGTKVEIKR
Molecule B4 has a ka (human IL-22) of 1.13e+06 M·s, a kd (human IL-22) of 3.55e-05 s⁻¹ and a ka (mouse IL-22) of 256000 M·s. For the same molecule, the kd (mouse IL-22) was 0.00123 s⁻¹.

B5: CPS04: mutant anti-IL-22 antibody binding human and mouse IL-22; light chain LC-07, heavy chain HC-09 (antibody, V domains shown)
VH: QVQLVQSGAEVKKPGASVKVSCKASGYIFRSYWIHWIRQPPGKGLEWIGRIYPGTGNTYYNRKFKGRVTISADKSISTAYLQWSSLKASDTAMYYCARSYDSSVAYWGQGTLVTVSS
VL: AIQLTQSPSSLSASVGDRVTITCSASSSVSYMHWYLQKPGQSPQLLIYKTSKLLSGVPSRFSGSGSGTDFTFTISSLEAEDAATYYCQQWSSNPYITFGQGTKVEIKR
B5 gave a ka (human IL-22) of 1.28e+06 M·s, a kd (human IL-22) of 3.74e-05 s⁻¹ and a ka (mouse IL-22) of 279000 M·s. For the same molecule, the kd (mouse IL-22) was 0.00118 s⁻¹.
